For one data set, the system named is OPM-2 myeloma cells. Kind of data set: Subcutaneous scid myeloma xenograft, OPM-2 (ICAM-1 negative). It is filed as in vivo, scid mice. As to conditions: 2 mg/kg twice weekly. As to the method:
Antibody treatment with 2 mg/kg B11 or control IgG1 was started at Day 1 and was continued on a twice-weekly intraperitoneal dosing regimen. Mice were sacrificed when tumor sizes reached the ethical limit.

The subject of a further data set is ARH-77 cells. Nature of the data set: Disseminated scid/ARH-77 model of multiple myeloma. As to conditions: i.v. on Days 7, 10, 13, 16; antibody 2 mg/kg, bortezomib 0.5 mg/kg; vs control treatment. It is filed as in vivo, scid mice. The method, then: ARH-77 cells or RPMI-8226 were injected intravenously into the SCID mice. (A) ARH-77 model. Animals received intravenous injections with antibody at 2 mg/kg or bortezomib (Velcade) at 0.5 mg/kg on Days 7, 10, 13, and 16 (as indicated by arrows in the graph). (B) RPMI-8226-model. B11 or control mAb was administered i.v at 2 mg/kg, twice weekly for 8 weeks, bortezomid, at 1 mg/kg, once weekly for 8 weeks, lenalidomide p.o with 2 mg/kg for 2 cycles consisting of 5 days of treatment and 2 days of wash out, melphalan i.v at 3 mg/kg, once weekly for 8 weeks, and dexamethasone (DXH) at 6 mg/kg/inj 3 times/week for 2 consecutive weeks. There were 6-10 mice per treatment group. Statistical significance was calculated using Log-rank Graphpad Prism software and determined at ***p<0.001. (C) To study the ICAM-1 level on human cells, the cells from different organs were stained and gated for CD38+/mCD45−/B11+. Left panel indicates the percentage of B11 positive cells in CD38+/mCD45 population and right panel the mean fluorescent intensity of the positive cells.
The anti-myeloma effect of B11 was examined in a disseminated model of multiple myeloma. The early and advanced disseminated model of multiple myeloma was performed at Oncodesign, Dijon, France. Briefly: 1×10^6 (early) or 5×10^6 (advanced) ARH-77 tumor cells in 200 μL of RPMI 1640 were injected intravenously (i.v) into the caudal vein of female scid mice (D0). Tumor cell injections were performed twenty four to forty eight hours after a whole body irradiation of mice (1.8 Gy, ^60Co, INRA, BRETENNIERES). The treatment was started at D5 RPMI-8226 model or D7 (ARH-77 model) […]. B11 or control mAb was administered i.v. at 2 mg/kg, twice weekly for 8 weeks, bortezomib, at 1 mg/kg, once weekly for 8 weeks, lenalidomide p.o with 2 mg/kg for 2 cycles consisting of 5 days of treatment and 2 days of wash out, melphalan i.v. at 3 mg/kg, once weekly for 8 weeks, and dexamethasone at 6 mg/kg 1 injected 3 times a week for 2 consecutive weeks.
The disseminated model of scid/ARH-77 is a well-established experimental model that resembles human multiple myeloma disease progression and disease manifestation in many respects (33). We utilized this model to further characterize IgG B11 anti-myeloma activity (FIG. 6A). Intravenous injection of irradiated scid mice with 1×10^6 ARH-77 cells was previously shown to result in their dissemination and establishment in mouse bone-marrow, and resulting osteolytic bone-lesions and hypercalcemia, and ultimately, in animal paralysis or difficulty of breathing at which time animals were immediately sacrificed. […]

For another data set, the target named is T1, mouse FcγRIV (Mus musculus, UniProt A0A0B4J1G0).
T1 construct: made in house; host or cells: HEK293E (transient, adherent)
T1 sequence (A0A0B4J1G0 21-249): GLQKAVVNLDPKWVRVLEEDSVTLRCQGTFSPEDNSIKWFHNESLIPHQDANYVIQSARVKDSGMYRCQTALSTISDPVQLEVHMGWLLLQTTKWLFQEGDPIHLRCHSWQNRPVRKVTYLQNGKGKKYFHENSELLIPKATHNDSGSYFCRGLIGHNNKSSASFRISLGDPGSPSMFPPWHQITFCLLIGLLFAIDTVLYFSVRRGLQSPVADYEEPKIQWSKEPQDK
Nature of the data set: B11 isotype variant binding to FcγR (Biacore), mouse FcγRIV. As to the method: His-tagged human FcγRIIIa or mouse FcγRIV were expressed transient in adherent HEK293E cells, purified using Ni-NTA chromatography and characterized using SDS-PAGE and/or Biacore. Surface plasmon resonance (SPR) measurements were performed using a Biacore 3000 instrument. Goat α-human-F(ab)′2 F(ab)′2 fragment (Jackson laboratories) was immobilised with a CM-5 chip using a standard amine coupling protocol. IgG1 B11, IgG4 B11, or 297Q B11 were diluted to 15 and 60 μg/mL respectively and added to the surface at […] for 3 min. His tagged human FcγRIIIa or mouse FcγRIV were pre-incubated with an α-HIS antibody (R&D Systems) at a 2:1 molar ratio before addition to the chip surface, 30 μL/min, 1 min. After each cycle the surface was regenerated twice with glycine buffer pH 1.7.

Data set [1] has as its system ICAM-1 expressing tumor cell lines. Kind of data set: Complement-dependent cytotoxicity (CDC) in tumor cell lines. Type of data set: cell-based. As to conditions: panel of ICAM-1 expressing tumor cell lines. The method, then: Target cells were harvested and incubated in RPMI medium with antibodies at 5 μg/mL or at titrated concentrations between 0.01-100 μg/mL for 60 min on ice. Cells were thereafter washed and resuspended in cold medium before dispension into flow cytometry tubes. Treatments were performed in triplicates. Human serum, normal or heat-inactivated, (Sigma, Sweden) was added to tubes and the samples were incubated for 2 h at 37° C. After completed incubation ToPo-Pro-3 was added at a final concentration of 0.3 μM and cells were analyzed for membrane permeabilization using flow cytometry.

Data set [2] has as its system HUVEC and HMVEC endothelial cells. Kind of data set: PCD in normal ICAM-1 expressing endothelial cells. It is filed as cell-based. Particulars: resting or activated HUVEC/HMVEC. The method, then: Target cells were seeded in 96-well culture plates at a density of 2×10^6 cells/mL culture medium. Titrated concentrations of IgG1 B11 or different negative and positive control antibodies were added to the cells, in the absence or presence of anti-human Fab fragment (Jackson ImmunoResearch) for cross-linking. The cells were then incubated for 16 hours at 37° C. in a humidified atmosphere of 5% CO2. The cells were harvested and stained for Annexin V-488/Propidium Iodide (Invitrogen, Sweden) and analysed using flow cytometer (FACS Calibur, BD Bioscience).

Data set [3] deals with HUVEC, HMVEC or peripheral blood B cells. Kind of data set: ADCC of normal ICAM-1 expressing cells. It is filed as cell-based.
Description: Buffy coats from human donors (ordered through Blodcentralen, Lund) were used to isolate peripheral blood mononuclear cells (PBMCs), and subsequently NK cells. Briefly, peripheral blood components were separated using Ficoll Paque PLUS (Amersham Biosciences, Sweden) in LeucoSep tubes (Greiner Bio-One). The PBMC fraction was removed and thoroughly washed in ice-cold DPBS (Invitrogen), before magnetic labeling and separation of the NK cell population using positive or negative NK cell isolation kits and MACS LS columns (Miltenyi Biotec). The purity of the obtained NK cell fractions was analyzed using flow cytometry, after staining with α-CD56 antibodies (BD Biosciences). Target cells were harvested, and incubated in medium with or without the respective antibodies (2 μg/mL) for 60 min on ice. Cells were thereafter washed and resuspended in cold medium before dispension into FACS tubes. Subsequently, isolated NK cells were diluted in ADCC medium and dispensed together with the respective antibody-coated target cells at varying effector/target cell ratios (40:1, 20:1, 5:1 and 1:1). All experiments were performed in triplicates. After completed incubation ToPo-Pro-3 dye and counting beads (Invitrogen) were added and cells were analyzed for membrane permeabilization using flow cytometry.
A further data set concerns PBMC. Kind of data set: PBMC / T cell proliferation. Type of data set: cell-based. Particulars: immobilised antibody or in solution. The text has this:
We next assessed IgG B11 effects on PBMC cytokine release and cell proliferation. In order to maximize chances of identifying any PBMC agonistic properties of IgG B11, we used two different antibody coating-protocols where antibody is hyper-cross-linked as previously described (62).

Here are results for one molecule from US20150352207A1, “USE OF ANTIBODIES AGAINST ICAM-1 IN COMBINATION WITH AN ANTI CANCER DRUG IN THE TREATMENT OF PATIENTS” (BIOINVENT INTERNATIONAL AB, priority 2013, published 2015).

Entries after “also recorded” stand apart in the source; their conditions may differ. Read-outs that look alike come from different tables or passages of the source.

B1: IgG B11: novel human ICAM-1 antibody targeting the B11 epitope, isolated from the naïve antibody library n-CoDeR (antibody, V domains shown)
VH: EVQLLESGGGLVQPGGSLRLSCAASGFTFSNAWMSWVRQAPGKGLEWVAFIWYDGSNKYYADSVKGRFTISRDNSKNTLYLQMNSLRAEDTAVYYCARYSGWYFDYWGQGTLVTVSS
VL: QSVLTQPPSASGTPGQRVTISCTGSSSNIGAGYDVHWYQQLPGTAPKLLIYDNNNRPSGVPDRFSGSKSGTSASLAISGLRSEDEADYYCQSYDSSLSAWLFGGGTKLTVLG
modifications: B11 antibody variable H region; B11 antibody variable L region
Regarding B1, the “effect on tumor growth” value with OPM-2 myeloma cells is listed as “no effect on tumor growth; also recorded: did not affect tumor growth”. In the data set with ARH-77 cells, the animal survival entry is recorded as “increased mean survival time”. In addition, in the data set on ARH-77 cells, the “time to symptomatic disease onset” value is given as “doubled the time to symptomatic disease onset”. Moreover, the “binding to murine FcγRIV” value with mouse FcγRIV is “strong binding”. Further, the “induction of CDC” value in data set [1] is listed as “did not induce CDC”. The “programmed cell death of normal endothelial cells” value in data set [2] was “did not, however, induce PCD”. The “ADCC of normal cells” value in data set [3] was “did not confer ADCC or CDC”; in data set [3] (listed as B11), “not significantly affected”. The cell proliferation result in the data set on PBMC is “did not induce cell proliferation”; in the data set on PBMC (listed as B11), “not significantly affected”.
